Measured values taken from article PMC7618200 (The Biochemical journal, 2025).
Where two headings read alike, the source gives them in different places. Values belong to the molecule of their own block, whether it stands above or below them. Ends that are not written are not given here. Peptide text beside a SMILES is read from it. * marks the point of attachment. 5FAM = O=C1OC2(c3ccc(O)cc3Oc3cc(O)ccc32)c2ccc(C(=O)*)cc21; 5Flu = 5-carboxyfluorescein label

Experiments:
[1] = biological target: Pdx1 15-mer peptide, fluorescently labeled (SPOP-binding region of pancreas/duodenum homeobox protein 1) (not stated (Figure 5A aligns a Homo sapiens and a Mesocricetus auratus sequence)); assay: fluorescence polarisation; two-fold dilution series of SPOP^MATH mixed with a constant 6-50 nM 5Flu-labeled peptide; 50 mM HEPES pH 7.5, 100 mM NaCl, 1 mM TCEP, 0.005% Tween-20; 25°C; one-site total binding fit; mean of three independent experiments
[2] = biological target: T1, SPOP^MATH (SPOP MATH domain) (Homo sapiens, UniProt O43791); assay: FP competition assay: unlabelled peptide versus Puc-5Flu peptide on SPOP^MATH; assay type: binding; conditions: read-out: IC50, FP competition, MyD88 peptides of varying length (Figure 1F)
T1 construct: bacterially expressed SPOP protein (SPOP^MATH); hexahistidine-MBP (with HRV 3C site) (N, cleaved yes); made in house; host or cells: E. coli BL21 (DE3); tracer peptide synthesized by Peptide Synthetics
Method: (§1) Peptides and SPOP^MATH protein were diluted in FP buffer (50 mM HEPES pH 7.5, 100 mM NaCl, 1 mM TCEP, 0.005% Tween-20). Measurements were made in 384-well black flat-bottom low-flange plates (Corning) using 20 μl reaction volumes. Plates were equilibrated at room temperature for 30 minutes before reading. Millipolarization (mP) measurements were taken in a Hidex Sense microplate reader (Hidex) at 25°C, with excitation at 490 nm (20 nm filter), emission at 520 nm (14 nm filter), and a G-factor of 1.
The technical duplicate mP values were averaged, and error bars represent standard deviation. Data were plotted and analyzed using Prism 9 software. […] IC50 values from three independent experiments were averaged and the standard deviation was calculated.

[3] = biological target: T1, SPOP^MATH (SPOP MATH domain); assay: Fluorescence polarization (FP) binding of 5Flu-labelled peptides to SPOP^MATH; conditions: FP direct binding; 6-50 nM 5Flu-peptide, two-fold dilution series of SPOP^MATH; 50 mM HEPES pH 7.5, 100 mM NaCl, 1 mM TCEP, 0.005% Tween-20; 30 min at room temperature, read at 25°C; one-site total binding fit; mean ± SD of three independent experiments; ~ = estimated; read-out: Kd, binding of fluorescently (5Flu) labeled peptide to SPOP^MATH
Method: as §1

[4] = biological target: T2, SPOP MATH domain (SPOP^MATH; residues 28-166) (human, UniProt O43791 28-166); assay: FP
T2 chain: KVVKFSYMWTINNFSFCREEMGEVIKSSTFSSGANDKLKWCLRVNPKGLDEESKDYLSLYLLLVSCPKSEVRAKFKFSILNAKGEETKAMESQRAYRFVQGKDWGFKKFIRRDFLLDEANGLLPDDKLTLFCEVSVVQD

[5] = biological target: T3, SPOP MATH domain (SPOP^MATH; residues 28-166) (human, UniProt O43791 28-166); assay: fluorescence polarisation; competition: two-fold dilution series of unlabeled peptide with 50 nM Puc-5Flu peptide and 5 μM SPOP^MATH; 50 mM HEPES pH 7.5, 100 mM NaCl, 1 mM TCEP, 0.005% Tween-20; 25°C; conditions: both partners purified
T3 construct: the methods print 28-116; Cleaved with HRV 3C protease; also called speckle-type BTB/POZ protein MATH domain; source: E. coli BL21 (DE3), purified (Ni-NTA, tag cleavage, reverse Ni-NTA, SEC); not shown: His6, N-terminal, cleaved; MBP, N-terminal, cleaved

[6] = biological target: T2, SPOP MATH domain (SPOP^MATH; residues …); assay: FP
[7] = biological target: T4, SPOP MATH domain (SPOP^MATH; residues 28-166) (human), O43791; assay: FP; conditions: modification not given
T4 chain: T2 chain

[8] = biological target: T3, SPOP MATH domain (SPOP^MATH; residues …); assay: fluorescence polarisation; two-fold dilution series of SPOP^MATH mixed with a constant 6-50 nM 5Flu-labeled peptide; 50 mM HEPES pH 7.5, 100 mM NaCl, 1 mM TCEP, 0.005% Tween-20; 25°C; one-site total binding fit; mean of three independent experiments; conditions: both partners purified

Molecule: SPOP MATH domain (SPOP^MATH; residues 28-166) (from UniProt O43791 28-166) (domain or fragment)
Kd [1]: 48 µM

Molecule: CC(C)C[C@H](NC(=O)[C@@H]1CCCN1)C(=O)N[C@@H](CCC(N)=O)C(=O)N[C@H](C(=O)N[C@@H](C)C(=O)N[C@@H](C)C(=O)N[C@H](C(=O)N[C@@H](CC(=O)O)C(=O)N[C@@H](CO)C(=O)N[C@@H](CO)C(=O)N[C@H](C(=O)N1CCC[C@H]1C(=O)N[C@@H](CCCNC(=N)N)C(=O)N[C@H](C(=O)O)[C@@H](C)O)C(C)C)C(C)C)C(C)C
IC50 [2]: ~518 µM

Molecule: CC(C)[C@H](NC(=O)c1ccc2c(c1)C(=O)OC21c2ccc(O)cc2Oc2cc(O)ccc21)C(=O)N[C@@H](C)C(=O)N[C@@H](CCC(=O)O)C(=O)N1CCC[C@H]1C(=O)N[C@@H](CCC(=O)O)C(=O)N[C@@H](CCC(N)=O)C(=O)N[C@@H](CC(=O)O)C(=O)N[C@@H](CS)C(=O)N[C@@H](C)C(=O)N[C@H](C(=O)N[C@H](C(=O)N[C@@H](CO)C(=O)NCC(=O)N[C@@H](CCC(=O)O)C(=O)N[C@@H](CCC(=O)O)C(=O)O)[C@@H](C)O)C(C)C (5FAM-VAEPEQDCAVTSGEE-OH)
Kd [3]: ~48 µM

Molecule: AEKPLQVAAVAAAVPRT
IC50 [2]: ~2110 µM

Molecule: SRENLACDEVTSTTS [Puc peptide (unlabeled competitor; natural Puc peptide)]
IC50 [6]: 98.6 µM

B5: Puc-5Flu peptide (SRENLACDEVTSTTSK-5Flu) (peptide)
peptide: SRENLACDEVTSTTSK(5Flu)
notes: added C-terminal lysine that carries the label; also called ^5Flu-Puc peptide; fluorescently labeled Puc peptide; source: synthetic peptide (Peptide Synthetics, Peptide Protein Research Limited)
Kd [8]: 1.1 µM

Molecule: DTDNLQSEQLSSSSDGS [SENP7 17-mer peptide]
IC50 [4]: ~2400 µM

Molecule: LVSSTSEGY [Caprin1 9-mer peptide]
IC50 [4]: ~773 µM

Other lines, results leading:

IC50 [4]: 2.6 µM
binding result [5]: binds
B1: Caprin1 17-mer peptide 426QPEATQVPLVSSTSEGY442 (peptide)
peptide: QPEATQVPLVSSTSEGY
notes: Caprin1, human, residues 426-442; source: synthetic peptide

IC50 [4]: 16.9 µM
binding result [5]: binds
B2: SRC-3 17-mer peptide 91NDDDVQKADVSSTGQGV107 (peptide)
peptide: NDDDVQKADVSSTGQGV
notes: also called NCoA-3; source: synthetic peptide

binding result [5]: binds
B3: chimeric MyD88-Puc peptide AEKPLQVAAVTSTTS (peptide)
peptide: AEKPLQVAAVTSTTS
notes: Puckered (Puc) SBC; also called chimeric peptide; source: synthetic peptide (Peptide Synthetics, Peptide Protein Research Limited)

IC50 [4]: ~699 µM
binding result [5]: binds
B4: SETD2 17-mer peptide DKGSVQAPEISSNSIKD (printed 363-1379) (peptide)
peptide: DKGSVQAPEISSNSIKD
notes: SET domain-containing protein 2 (SETD2), human; also called SET domain-containing protein 2; source: synthetic peptide

IC50 [7]: 2110 µM
Molecule: AEKPLQVAAVAAAVPRT […]
